Source: US20190055314A1 (ADAGENE, published 2019)
Positions count from the first letter of the chain named. Read-outs that look alike come from different tables or passages of the source.

What was measured:
[1] = target: T1, mouse CD137 protein (Biacore) (mouse, UniProt P20334 24-178, limits assumed); assay: SPR Biacore
T1 construct: Construct used as SPR analyte not described
T1 sequence: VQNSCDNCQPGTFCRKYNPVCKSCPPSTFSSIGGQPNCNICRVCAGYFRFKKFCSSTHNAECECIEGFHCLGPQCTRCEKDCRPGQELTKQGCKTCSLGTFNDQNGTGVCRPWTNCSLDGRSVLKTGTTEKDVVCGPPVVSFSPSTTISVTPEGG

Hu_CRD2 = target: T2, Hu_CRD2 (human, UniProt Q07011 46-86, limits assumed); assay: flow cytometry, yeast display [Cont.]
T2 construct: also called human CD137 CRD2
T2 chain: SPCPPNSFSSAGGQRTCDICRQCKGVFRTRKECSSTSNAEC

[2] = target: T3, full-length mouse CD137 on the cell surface (mouse, UniProt P20334 24-178); assay: flow cytometry, yeast display [Cont.]
T3 sequence: T1 sequence

[3] = target: T4, full-length human CD137 on the cell surface (human, UniProt Q07011 18-255); assay: flow cytometry, yeast display [Cont.]
T4 construct: also called Human WT

Hu_EL111AA = target: T5, Hu_EL111AA (human, UniProt Q07011 18-255); assay: flow cytometry, HEK293F
T5 construct: On HEK293F

Hu_GQ109AA = target: T6, Hu_GQ109AA (human, UniProt Q07011 18-255); assay: flow cytometry, HEK293F
T6 construct: On HEK293F

Hu_TN137AA = target: T7, Hu_TN137AA (human, UniProt Q07011 18-255); assay: flow cytometry, HEK293F
T7 construct: On HEK293F

Hu_PW135AA = target: T8, Hu_PW135AA (human, UniProt Q07011 18-255); assay: flow cytometry, HEK293F cells expressing CD137 or mutant [Cont.]
T8 construct: On HEK293F

Hu_GT150AA = target: T9, Hu_GT150AA (human, UniProt Q07011 18-255); assay: as above
T9 construct: On HEK293F

Hu_FN125AA = target: T10, Hu_FN125AA (human, UniProt Q07011 18-255); assay: as above
T10 construct: On HEK293F

Hu_CRD2-CRD3-CRD4 [4] = target: T11, Hu_CRD2-CRD3-CRD4 (human, UniProt Q07011 46-159, limits assumed); assay: flow cytometry, yeast display [Cont.]
T11 construct: also called three CRD units (CRD2-CRD3-CRD4) of human CD137

Hu_CRD1-CRD2-CRD3 [5] = target: T12, Hu_CRD1-CRD2-CRD3 (human, UniProt Q07011 24-118, limits assumed); assay: flow cytometry, yeast display [Cont.]
T12 construct: also called three CRD units (CRD1-CRD2-CRD3) of human CD137

Hu_CRD3-CRD4 [6] = target: T13, Hu_CRD3-CRD4 (human, UniProt Q07011 87-159, limits assumed); assay: flow cytometry, yeast display [Cont.]
T13 construct: also called two CRD units (CRD3-CRD4) of human CD137

[7] = target: T14, mouse CD137 fused with human FC fragment (mouse, UniProt P20334 24-178, limits assumed); assay: ELISA, coated CD137-Fc
T14 construct: also called mouse CD137-Fc; not shown: human Fc fragment
T14 sequence: T1 sequence

Hu_FSS53AAA = target: T15, Hu_FSS53AAA (human, UniProt Q07011 18-255); assay: flow cytometry, HEK293F cells expressing CD137 or mutant [Cont.]
T15 construct: On HEK293F
T15 chain: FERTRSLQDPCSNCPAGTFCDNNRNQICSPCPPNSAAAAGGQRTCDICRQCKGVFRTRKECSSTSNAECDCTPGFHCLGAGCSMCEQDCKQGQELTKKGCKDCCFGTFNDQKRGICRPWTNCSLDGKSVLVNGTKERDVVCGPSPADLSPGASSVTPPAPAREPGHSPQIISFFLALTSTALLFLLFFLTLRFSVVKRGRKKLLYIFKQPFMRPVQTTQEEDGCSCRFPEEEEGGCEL

Hu_FH92AA = target: T16, Hu_FH92AA (human, UniProt Q07011 18-255); assay: as above
T16 construct: On HEK293F

Hu_GTF34AAA = target: T17, Hu_GTF34AAA (human, UniProt Q07011 18-255); assay: as above
T17 construct: On HEK293F; also called GFT34AAA
T17 chain: T15 chain with G17A, T18A, F19A, A36F, A37S, A38S

[8] = target: T18, human CD137-His6 (Sino Biological #10041-H08H) (human, UniProt Q07011 24-186); assay: SPR Biacore, IgG captured
T18 construct: Bought; also called human CD137 protein; not shown: His6 tag

[9] = target: T4, full-length human CD137 on the cell …; assay: cell-based or functional assay
[10] = target: T19, rat CD137 on the cell surface (rat, UniProt Q4W8J3 24-258); assay: flow cytometry, HEK293F cells expressing CD137
T19 sequence: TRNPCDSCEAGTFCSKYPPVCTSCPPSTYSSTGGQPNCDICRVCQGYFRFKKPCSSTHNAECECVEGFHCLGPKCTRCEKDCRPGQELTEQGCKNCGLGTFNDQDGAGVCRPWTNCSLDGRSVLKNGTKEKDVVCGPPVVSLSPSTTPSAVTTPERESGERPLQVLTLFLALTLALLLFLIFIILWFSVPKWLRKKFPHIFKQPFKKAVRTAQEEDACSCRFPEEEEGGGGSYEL

Hu_CRD4 [11] = target: T20, Hu_CRD4 (human, UniProt Q07011 119-159, limits assumed); assay: flow cytometry, yeast display [Cont.]
T20 construct: also called human CD137 CRD4
T20 chain: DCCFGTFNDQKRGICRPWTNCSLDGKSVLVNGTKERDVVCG

Hu_CRD1-CRD2 [12] = target: T21, Hu_CRD1-CRD2 (human, UniProt Q07011 24-86, limits assumed); assay: flow cytometry, yeast display [Cont.]
T21 construct: also called two CRD units (CRD1-CRD2) of human CD137

Hu_CRD3 [13] = target: T22, Hu_CRD3 (human, limits assumed); assay: flow cytometry, yeast display [Cont.]
T22 construct: also called human CD137 CRD3
T22 chain: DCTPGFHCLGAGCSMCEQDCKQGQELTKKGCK

Hu_CRD2-CRD3 [14] = target: T23, Hu_CRD2-CRD3 (human, UniProt Q07011 46-118, limits assumed); assay: flow cytometry, yeast display [Cont.]
T23 construct: also called two CRD units (CRD2-CRD3) of human CD137

[15] = target: T3, full-length mouse CD137 on the cell …; assay: flow cytometry, HEK293F cells expressing CD137 or mutant
[16] = target: T4, full-length human CD137 on the cell …; assay: as above
[17] = target: T4, full-length human CD137 on the cell …; assay: flow cytometry, HEK293F
Hu_CRD2-CRD3-CRD4 [18] = target: T11, Hu_CRD2-CRD3-CRD4; assay: flow cytometry, yeast display [Cont.]; remark: listed apart in the source
Hu_CRD1-CRD2-CRD3 [19] = target: T12, Hu_CRD1-CRD2-CRD3; assay: flow cytometry, yeast display [Cont.]; remark: listed apart in the source
Hu_CRD3-CRD4 [20] = target: T13, Hu_CRD3-CRD4; assay: flow cytometry, yeast display [Cont.]; remark: listed apart in the source
Hu_CRD4 [21] = target: T20, Hu_CRD4; assay: flow cytometry, yeast display [Cont.]
Hu_CRD1-CRD2 [22] = target: T21, Hu_CRD1-CRD2; assay: flow cytometry, yeast display [Cont.]; remark: listed apart in the source
Hu_CRD3 [23] = target: T22, Hu_CRD3; assay: flow cytometry, yeast display [Cont.]
Hu_CRD2-CRD3 [24] = target: T23, Hu_CRD2-CRD3; assay: flow cytometry, yeast display [Cont.]; remark: listed apart in the source
[25] = target: T4, full-length human CD137 on the cell …; assay: flow cytometry, yeast display [Cont.]; remark: listed apart in the source
[26] = target: T24, CD137-hisFc fusion protein (Sino Biological Cat 10041-H03H) (human, UniProt Q07011 24-186); assay: BLI Octet, Fab
T24 construct: Bought; also called recombinant human CD137 (fused with human Fc and His tag); not shown: His tag and human Fc

[27] = target: T14, mouse CD137 fused with human FC fragment; assay: ELISA, Fab captured by anti-human IgG (Fab specific), CD137-Fc added, anti-human Fc-HRP
[28] = target: T24, CD137-hisFc fusion protein (Sino …); assay: BLI Octet, Fab; remark: listed apart in the source

B1: AC1121 (antibody, V domains shown)
VH: QVQLQQWGAGLLKPSETLSLTCAVYGGSFSGYYWSWIRQSPEKGLEWIGEINHGGYVTYNPSLESRVTISVDTSKNQFSLKLSSVTAADTAVYYCARDYGPGNYDWYFDLWGRGTLVTVSS
VL: EIVLTQSPATLSLSPGERATLSCRASQSVSSYLAWYQQKPGQAPRLLIYDASNRATGIPARFSGSGSGTDFTLTISSLEPEDFAVYYCQQRSNWPPALTFGGGTKVEIK
For B1, the binding result [1] was “no binding”, the “% in upper right quadrant” value (Hu_CRD2) was 0.26% and the Mean (Hu_CRD2) was 4050. For the same binder, the “% in upper right quadrant” value [2] was 0.4%, the Mean [2] was 13100 and the “% in upper right quadrant” value [3] was 32.2%. The Mean [3] was 93600, the binding result (Hu_EL111AA) was “binds” and the binding result (Hu_GQ109AA) was “binds”. For the same binder, the binding result (Hu_TN137AA) was “binds”, the Mean (Hu_PW135AA) was 53900 and the Mean (Hu_GT150AA) was 21300. The Mean (Hu_FN125AA) was 23100, the “% in upper right quadrant” value (Hu_CRD2-CRD3-CRD4 [4]) was 0.42% and the Mean (Hu_CRD2-CRD3-CRD4 [4]) was 29500. The “% in upper right quadrant” value (Hu_CRD1-CRD2-CRD3 [5]) was 57.2%, the Mean (Hu_CRD1-CRD2-CRD3 [5]) was 46500 and the “% in upper right quadrant” value (Hu_CRD3-CRD4 [6]) was 0.18%. The Mean (Hu_CRD3-CRD4 [6]) was 3460, the binding result [7] was “no binding” and the Mean (Hu_FSS53AAA) was 16700. For the same binder, the binding result (Hu_FH92AA) was “binds”, the Mean (Hu_GTF34AAA) was 8620 and the Kd [8] was 9.6 nM. The “NFκB reporter: EC50 (nM) With Cross-Linker” value [9] was 2.51 nM, the “NFκB reporter: EC50 (nM) Without Cross-Linker” value [9] was 1.27 nM and the binding result [10] was “no binding (tested: 100 nM (text paragraph 220))”. For the same binder, the “% in upper right quadrant” value (Hu_CRD4 [11]) was 0.15%, the Mean (Hu_CRD4 [11]) was 6770 and the “% in upper right quadrant” value (Hu_CRD1-CRD2 [12]) was 51.4%. The Mean (Hu_CRD1-CRD2 [12]) was 26000, the “% in upper right quadrant” value (Hu_CRD3 [13]) was 0.22% and the Mean (Hu_CRD3 [13]) was 13900. The “% in upper right quadrant” value (Hu_CRD2-CRD3 [14]) was 0.12%, the Mean (Hu_CRD2-CRD3 [14]) was 12800 and the binding result [15] was “no binding (tested: 100 nM (as in Example 5))”. The “% in upper right quadrant” value [16] was 27.8% and the Kd [17] was 3.3 nM.

B2: mouse CD137L (ligand, UniProt P41274 104-309, looked up)
chain: RTEPRPALTITTSPNLGTRENNADQVTPVSHIGCPNTTQQGSPVFAKLLAKNQASLCNTTLNWHSQDGAGSSYLSQGLRYEEDKKELVVDSPGLYYVFLELKLSPTFTNTGHKVQGWVSLVLQAKPQVDDFDNLALTVELFPCSMENKLVDRSWSQLLLLKAGHRLSVGLRAYLHGAQDAYRDWELSYPNTTSFGLFLVKPDNPWE
B2 was tested, and the “% in upper right quadrant” value (Hu_CRD2-CRD3-CRD4 [18]) was 0.026%, the Mean (Hu_CRD2-CRD3-CRD4 [18]) was 3260 and the “% in upper right quadrant” value (Hu_CRD1-CRD2-CRD3 [19]) was 0.19%. For the same binder, the Mean (Hu_CRD1-CRD2-CRD3 [19]) was 4700, the “% in upper right quadrant” value (Hu_CRD3-CRD4 [20]) was 0.24% and the Mean (Hu_CRD3-CRD4 [20]) was 10000. The “% in upper right quadrant” value (Hu_CRD4 [21]) was 0.15%, the Mean (Hu_CRD4 [21]) was 9270 and the “% in upper right quadrant” value (Hu_CRD1-CRD2 [22]) was 0.16%. For the same binder, the Mean (Hu_CRD1-CRD2 [22]) was 43800, the “% in upper right quadrant” value (Hu_CRD3 [23]) was 0.2% and the Mean (Hu_CRD3 [23]) was 46000. The “% in upper right quadrant” value (Hu_CRD2-CRD3 [24]) was 0.19%, the Mean (Hu_CRD2-CRD3 [24]) was 15900 and the binding result [25] was “no binding”.

B3: Fab 5351 (Fab, V domains shown)
VH: EVQLVESGGGLVQPGGSLRLSCAASGYSITSGHYWAWIRQAPGKGLEWVSSISGYGSTTYYADSVKGRFTISRDNSKNTLYLQLNSLRAEDTAVYYCARGGSDAVLGDWFAYWGQGTLVTVSS
VL: DIQLTQSPSSLSASVGDRVTITCRASQGIGSFLAWYQQKPGKAPKLLIYDASNLETGVPSRFSGSGSGTDFTLTISSLQPEDFATYYCQQGYYLWTFGQGTKVEIKR
notes: Fab from E. coli; also called VH25/VL25
Work on B3 yielded a Kd [26] of 7.3 nM, a koff [26] of 0.0034 s⁻¹ and a kon [26] of 470000 M⁻¹ s⁻¹. For the same binder, the binding result [27] was “no binding”, the Kd [28] was 7.29 nM and the koff [28] was 0.0034 s⁻¹. It also gave a kon [28] of 466000 M⁻¹ s⁻¹.
